Test results published in patent US6114143, “Anti-HIV monoclonal antibody” (Juridical Foundation The Chemo-Sero-Therapeutic Research …, dated 2000).

T1: synthetic PND peptide SP-1 (HIV strain MN) (HIV strain MN)
T1 peptide: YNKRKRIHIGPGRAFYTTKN

T2: hexapeptide Ile-Gly-Pro-Gly-Arg-Ala (HIV strain MN)
T2 peptide: IGPGRA

T3: hexapeptide Gly-Pro-Gly-Arg-Ala-Phe (HIV strain MN)
T3 peptide: GPGRAF

T4: decapeptide IHIGPGRAFY derived from HIV-MN (HIV strain MN)
T4 peptide: IHIGPGRAFY

B1: monoclonal antibody C25 (antibody, V domains shown)
VH: QVQLQQSGAELVRPGTSVKMFCKAAGYTFTNSWIGWFRQRPGHGLEWIGDIYPGGGYTNYNEIFKGKATLTADTSSSTAYMQLSSLTSEDSAIYYCSRGIPGYAMDYWGQGTSVTVSS
VL: DIVMTQSPSSLTVTAGEKVTMSCKSSQSLLNSGDQKNYLTWYQQKPGQPPKLLIYWASTGESGVPDRFTGSGSETDFTLTISSVQAEDLAVYYCQNDYSYPWTFGGGTKLEIK
B2: chimeric C25 antibody (CC25) (antibody, V domains shown)
VH: B1 VH
VL: B1 VL
B3: humanized C25 antibody (RC25) (antibody, V domains shown)
VH: QVQLVQSGAEVKKPGASVKVSCKASGYTFTNSWIGWFRQAPGQGLEWIGDIYPGGGYTNYNEIFKGKATMTADTSTNTAYMELSSLRSEDTAVYYCSRGIPGYAMDYWGQGTLVTVSS
VL: DIQMTQSPSSLSASVGDRVTMSCKSSQSLLNSGDQKNYLTWYQQKPGKAPKLLIYWASTGESGVPSRFSGSGSGTDFTFTISSLQPEDIATYYCQNDYSYPWTFGQGTKVEIK

Columns and labels:
gp120 of HIV-MN strain = gp120 of HIV-MN strain (HIV strain MN, UniProt P05877); assay: cell-based or functional assay
[1] = target: T1, synthetic PND peptide SP-1 (HIV strain …); assay: EIA, peptide immobilized on plate (FIG. 4)
[2] = target: synthetic PND peptide SP-6 (HIV strain NI16-1) (HIV strain NI16-1); assay: EIA, peptide immobilized on plate (FIG. 4)
[3] = target: synthetic PND peptide SP-9 (HIV strain NI23) (HIV strain NI23); assay: EIA, peptide immobilized on plate (FIG. 4)
[4] = target: synthetic PND peptide SP-11 (HIV strain NI54-2) (HIV strain NI54-2); assay: EIA, peptide immobilized on plate (FIG. 4)
[5] = target: synthetic PND peptide SP-12 (HIV strain NI53) (HIV strain NI53); assay: EIA, peptide immobilized on plate (FIG. 4)
[6] = target: synthetic PND peptide SP-20 (HIV strain NI63-2) (HIV strain NI63-2); assay: EIA, peptide immobilized on plate (FIG. 4)
[7] = target: synthetic peptide SP-30 (5 repeats of GPGR); assay: EIA, peptide immobilized on plate (FIG. 4)
[8] = target: T2, hexapeptide Ile-Gly-Pro-Gly-Arg-Ala; assay: EIA with overlapped peptides on a solid phase (FIG. 7)
[9] = target: T3, hexapeptide Gly-Pro-Gly-Arg-Ala-Phe; assay: as above
[10] = target: T4, decapeptide IHIGPGRAFY derived from …; assay: EIA, peptide synthesized on a polyethylene rod (FIG. 6)
[11] = target: decapeptide […] derived from NI53 (HIV strain NI53); assay: as above

| Binder | minimum effective concentration inhibiting viral infection by 100% (gp120 of HIV-MN strain) [µg/mL] | binding result [1] | binding result [2] | binding result [3] | binding result [4] | binding result [5] | binding result [6] | binding result [7] | binding result [8] | binding result [9] | binding result [10] | binding result [11] |
| --- | --- | --- | --- | --- | --- | --- | --- | --- | --- | --- | --- | --- |
| B1 | 1 | binds | binds | binds | binds | binds | binds | binds | binds | binds | binds | binds |
| B2 | 1 |  |  |  |  |  |  |  |  |  |  |  |
| B3 | 1 |  |  |  |  |  |  |  |  |  |  |  |
